Measurements taken from paper PMC5058683, “Structural basis for small molecule targeting of the programmed death ligand 1 (PD-L1)” (Oncotarget, 2016).

Target: human PD-1 (33-150, Cys93 exchanged to serine) (human, UniProt Q15116 33-150, Cys93 exchanged to serine)
Test: NMR titration; AIDA assay: 15N-labelled PD-1 (0.2 mM) slightly overtitrated with unlabelled PD-L1; 1H-15N HMQC linewidths; 300 K; complex mass estimated from relaxation time analysis
Conditions: both partners purified

human PD-1 (33-150, Cys93 exchanged to serine), sequence (Q15116 other isoform, or with tags, fused parts or gaps Cys93 exchanged to serine | Cys93 exchanged to serine): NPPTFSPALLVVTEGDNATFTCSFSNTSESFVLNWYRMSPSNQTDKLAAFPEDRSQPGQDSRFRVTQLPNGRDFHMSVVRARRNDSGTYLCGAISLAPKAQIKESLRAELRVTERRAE

B1: human PD-L1 (amino acids 18-134) (domain or fragment)
chain: AFTVTVPKDLYVVEYGSNMTIECKFPVEKQLDLAALIVYWEMEDKNIIQFVHGEEDLKVQHSSYRQRARLLKDQLSLGNAALQITDVKLQDAGVYRCMISYGGADYKRITVKVNAPY
notes: human PD-L1 (programmed death ligand 1), amino acids 18-134, the distal extracellular IgG like domain; Cloned into pET-21b; The vector may add a C-terminal His tag with a short linker (surmised), and the deposited entries 5J89 and 5J8O would show it; Made in bacteria, so not glycosylated; Uniformly 15N-labelled in some NMR experiments; also called hPD-L1; programmed death ligand 1
  stoichiometry N: 1
